{
  "source": "the DeepSol protein solubility set",
  "data": [
    {"assay": "soluble on expression in E. coli; label from the status in PepcDB or PDB records", "values": [
      {"sequence": "MKRIQEIQQNLERLAEMDEHLEQCEEWNVVAQEIVQKLSTIRKEVERSAAPTPLLLTPPGSCGSGSIYSDISSEMTNVYTEAVEAYDQQIYSRCVRLVEGANRESPVDMCLISLAHHSYAEMVNAASGSDDAMKFAKWWAEFLDSVEAGRGHSEKIELLDYEAVAYEKIVKLGGVADVEKLIEVVVRSYEMVTLLNRPYHILSLQKLFRLTNVLSSSEVDLESDAFSSAKTVVLTGIQNVLRDRKKFAQLGKFNEHNMKIAMRRTAQPDFRVRYCEKR", "soluble on expression in E. coli": "soluble"},
      {"sequence": "GPGSMQRHRTPEPGPRGASSQNPRRPPQTSAKSPARRVSRRSSAATTSAPGGIELTRAQQIEAKAARDAVVGAMTKSSPQAAKMFVESISLDVDVETTRQLLCSKKGFVALPSSIGVLCRQLRKLDLSGNGLTDLSPLATLQHLSNLNVAHNGLLASLKGLSGTCLSVLNISFCAVESLEGLEHTALTLRTFIANDNRLQLHSPLLADVVATAGEDAAEMEAAREHLPESLCRSSSHSGADLRAVAQRNYAIFSTFQQCETVVLSRNTRLCQLFPTWGVEEVAAECGEVPGRSSAAADDEGSDDAADGASTTMSADGDGGDSANRGKKHRASAAKRRDRRRIAVHPTDRSASNTPAAAREPFGDSPEMATYNQRRHALALAHPLSVFERLSRLRKLSLSGCELHSLPVRWFLPMVTELRLAQNHLTSLQPDGVILRSLHILDISNNLFASVASLRRCRYLEQLNVRGNPLIEEGVLQDKAAGLTTAERIADVAATTPSSGTSAAPIAVQQRLLRLFPNMKLLDGQPMMTAGQVRSAYMQRNARSAAERQDKLTEKGCSDGSAIVASLHEARDDVGNAHAASDDSERGSSSGDAPRTAPTARAEARSPARKARRADSAVIAAEADEKDNVVEAPLSVVKTAHAQIVRRERVLLRPGAAAASGSNTGAAGQKRKAGQTPTSPAAVVYGQAAVAKLLEQSRSRSAW", "soluble on expression in E. coli": "not soluble"},
      {"sequence": "SPAKTPIYLKSNYSKKGKKCRLRDILSPDMISPPLGDFRHTIHIGKGGECDAFGDMSFLQGNFELLPGKGGRVRPQYGLHGEFTRANSASDASYVETPSPVLKNAISLPTIGGSQALTLPMISTTVFPMTHDNMSEPSTPPAGSEDLEILQMETLLQSISIFRSDPSPVPEEDEPMIDRMEMNEKSCMKKMHSSEKELETFLSVFVNGNGDANGNFNNGNNGDSVFQYEQDMFSIKGDWADRDSGVEEGRLCDSDFEISKSKSQSQESLPQITGSLFSLELDLGPSILDDVLNIMNKPVS", "soluble on expression in E. coli": "soluble"},
      {"sequence": "MAHHHHHHMGYGGPRVEFYTANQYSNFAAAIDRENAARVRSILHRRNLPAEQEAQRQREAAFRAYERAQADEVARSHAEEAEALERRRVKDERAQRRLATKTRRRSLTAAEVASRRSRHACLCRLAEPRKYQEAMYGSGMIGGAMPHQSGRDGKLPTVGRNGAVYCAGVDRDRIVPSRPALEGTVPPWKGSYSTHHGPHKLDAQMAKEAAAYYCAHPAPQRSASEQDMRQQTLQSIAAEHSMAAQQDGADVGMADASGAKGRSSVADAVQWHRMGSDNVDDEAGSIFSHGSSNGPIAATGNMHLSTTSTKHSVQLHLSRYGGAMTAPRPWRPSKAASENLTLPELADRLVCIQMSKSVVR", "soluble on expression in E. coli": "not soluble"},
      {"sequence": "MEWKNDVLRFSGFDYGVSKIRMLNEELHSECDQLSKSNESTSLKDITEEPKDEKLESIIETAKNKESEKEENSHVFNDCEFDAMTERKIENFYFRNVEQAEKKMKHLTTLKSKWSEPWQTGEEIVAKVYLKPKNHENPWKDGTFQEKEAVEMQKNGKKHGRCIIS", "soluble on expression in E. coli": "not soluble"},
      {"sequence": "MSLEVEVYRDPLSGFKDNKKSAPVKLNDEQQFALNQITAAIDKRKAETFLLEGITGSGKTEVYLHAISKALEQGRNALMLVPEISLTPQMVRQVKSRFGQAVAVLHSALSEGEKYDEWRRIRRGETRVVVGARSAVFAPLDNIGLIVIDEEHESSYKQETDPRYNARDVAIWRSKYHHCPLVLGSATPSLGSRARAQKNVYKLLRLTKRANNKKLPKVNLIDLKHVQFAGGQFDLSVNLVDAIKKRLDNKEQVILMLNRRGFANFMLCRECGFVLKCPNCDVSLNLHKDTNSMQCHYCGHTERVPSRCPNCQSSKIRFLGTGTQKVQEELEELLPGARILRMDVDTTRKKGSYKRILDSFGNHEADILLGTQMIAKGLDFPNVTLVGVINADTGLWLSDYNASEKTFELLTQVAGRAGRANKEGEVLIQTYNPEHYAIQLAQTQNYERFYGYEMNVRHAGNYPPYFFTVLISIAAKKEQNAAREAFRIKRYLSQHLHEEMIILGPTPSAISRVKNQYYYQILVKYKKEPNIKELLHHIQDSAQEAKKYGLNVFIDNEPEKIMEGHHHHHH", "soluble on expression in E. coli": "not soluble"},
      {"sequence": "MAGDPMKKRFSNKVLIIGYGSVSQCTLPLLLDKLDIPLENITLIDFEDKSKALKKYTNQGLTFVREKITPENLDQVLSQNMENEGMIIDLSWNIDANEIVKWCHDHDVLYVNTSVEVWDPAEKFLTQSLLEKSLYLRQMRLQELSRDWKDAPTAVVDHGANPGLITHFVKQGLLDIAARTCEDKKVSPEDEQEIALLAKNRDFARLARKLGIRVIHCSERDTQIASRPKEVNEFVGTWSIEGLREEGTAPVEIAWGTHESKLPPLAHIPPYGPKNVILLPQMGVNAWVRSWIPDEEIVGMAIRHGESYGLSKLLTVWEGEKAVYRPTVHYAYMPSHDTLSSLCELRGRNYELQPRLRIMTNEIVSGEDIMGALLMGHSYNSWWTGSALSIEEARSLAPGQNATTLQVAAGIVAAILWMLENPREGVKTPEDLPHDFVLDIARPYLGKFISTPSDWTPLKNRKIFFKESPAVKHDPDPWQFENFIFVGLEHHHHHH", "soluble on expression in E. coli": "soluble"},
      {"sequence": "MGSDKIHHHHHHVDKLLYVAMSGAKQNMNSLAVRANNLANANTDGFKSDLEQARSMQAFGEGLPTRVFSMTENPSANFAAGPIKTTGRDLDIAVKGDGWIAVQAVDGGEAYTRSGSLSFDTSGLLRNDRGNPVMGDAGPIVLPLPIEKVEIAQDGTISVRPLGSTAEVIEEVGRIKLVNPGNQNLMRGEDGLFRQLSGVNAPADPNVAVESGAIEGSNVNAVDEMVSLIDLQRQFEMQVKMMKTAEEMDQASSSLMRIS", "soluble on expression in E. coli": "not soluble"},
      {"sequence": "SSFSWDNCDEGKDPAVIRSLTLEPDPIIVPGNVTLSVMGSTSVPLSSPLKVDLVLEKEVAGLWIKIPCTDYIGSCTFEHFCDVLDMLIPTGEPCPEPLRTYGLPCHCPFKEGTYSLPKSEFVVPDLELPSWLTTGNYRIESVLSSSGKRLGCIKIAASLKGI", "soluble on expression in E. coli": "soluble"},
      {"sequence": "MPAGLVISAPASGVGKTTLTLALARAWRNRGLSVQCFKSGPDYIDPAFHAAATGRASVNVDSWAMDRGGIAHLVGRGADADVVLAEGSMGLFDGVAARGVSGTGATADIAEMLGWPVLLVIDPSGQAQTAAAIAAGLRDYRPGVRLAGVVLNRVASPRHEDLVRRALDDAGIAVFGALPRHAEISLPKRHLGLVQAEEQAEIGKLIDEAARFVAEHVDLDAVLQSAAAWAPQPAANGLNVTPPGQRIALARDAAFSFVYPHMLEAWRAAGADISTFSPLADEAPDASADVCWLPGGYPELHAGKIAANARFCSGLRAFAETRPVHGECGGYMVLGTALTDADGVRHEMAGLLGLETSFAKRRMHLGYRLAELAAPMPGHSPGARLRGHEFHYSTIAAQPDMPLAVVHDATGAVIAETGSRRGNATGTFFHLIAEDRLEHHHHHH", "soluble on expression in E. coli": "soluble"},
      {"sequence": "LADSSDVTEVENYMKANYDVPNNVYFGKAEGKNVIYVSLESLQSFIIDYKIDGKEVTPFLNKLAHDNETFYFDNFFHQTGQGKTSDAEFMMENSLYPLAQGSVFVNKAQNTLQSVPAILKSKNYTSATFHGNTQTFWNRNEMYKAEGIDKFFDSAYYDMNEENTKNYGMKDKPFFKESMPLLESLPQPFYTKFITLSNHFPFGMDEGDTDFPAGDFGDSVVDNYFQSAHYLDQSIEQFFNDLKKDGLYDKSIIVMYGDHYGISENHNKAMAKVLGKDEITDYDNAQLQRVPLFIHAAGVKGEKVHKYAGDVDVAPTILHLLGVDTKDYLMSGSDILSKEHREVIPFRNGDFISPKYTKISGKYYDTKTGKELDESEVDKSEDSLVKKELEMSDKIINGDLLRFYEPKGFKKVNPSDYDYTKHDEDSSETSKDNEDK", "soluble on expression in E. coli": "soluble"},
      {"sequence": "SLNDNFKKQPHHLIYEELLQQGITLGITTRGDGLSDYPKNAFNMARYIDDRPYNITQHQLQLAEEIAFDRKNWVFPIQTHENKVACITKDDIGTNIDTLTDALHGIDAMYTYDSNVLLTMCYADCVPVYFYSTKHHFIALAHAGWRGTYTEIVKEVLKHVNFDLKDLHVVIGPSTSSSYEINDDIKNKFETLPIDSANYIETRGRDRHGIDLKKANAALLIYYGVPKENIYTTAYATSEHLELFFSYRLEKGQTGRMLAFIGQQ", "soluble on expression in E. coli": "soluble"},
      {"sequence": "MGSDKIHHHHHHARRNSTSRGSDSAARSPPSIRASHLKHCCFPIKEPTMSTINYSEKIPNNVNLADDRTLQRALEQWQPNFLSWWGDMGPDGSHGYDVYLRTAVSVDAGGWAHFDHVKMPDYRWGIFLTPGEQDRKIQFGEHKGEAAWQDVPGEHRANLRRIIVTQGDTEPASVEQQRHLGLTAPSMYDLRNLFQVNVEEGRHLWAMVYLLHRYFGRDGREEAEALLGRRSGDDDNPRILGAFNEKTPDWLAFYMFTYFTDRDGKFQLSALAESGFDPLARTTKFMLTEEAHHMFVGESGVSRVVQRTAQVMNELKTDDVNQIRAAGVIDLPTIQRYLNFHYSVTIDLFGADHSSNAATFYSSGLKGRYEETKRDDDHQLGGQSYKLLDVQDGKLVEREVPMLNAMNEVLRDDYIKDSVAGVNRWNKVLEKAGIEFRLTVPHKAFNRQIGTFAGTRVAPDGRVVSETEWAANEAKWLATPEDRAYVASLMGRVVEPGKFANWIAPPAMGINRQPIDFEYVRFN", "soluble on expression in E. coli": "not soluble"},
      {"sequence": "MVGGDGATRREQSLCDSCYFAAFDLVDAPDTIEVMVCARCGAVHRGNRWVDIGADDYVDVAVAETTEALGVHLEAEDVDWEVRPEKLDDNTVRMHATFTGVVRDTHRTEQVAVTVKVSRQTCQRCGRIAGESYASTVQVRAVGRDPTSEETDRAAELAHRIVADMEATGDREAFVTEIGDAESGTDIKLSTTKIGLKLARKLVEEFGGDFEDHETLITEDDDGNEVYRVTYAVRLPEFVPGDVVDIAADDGGPVLVQSNHGNLKGVRVTTGEPYEASFEDGDSPDARKLGAVADATEATVVTVEDDAAIQILDPDTYEAQTVARPDYVDPDASTVPALKSRAGLHVLPDALEHHHHHH", "soluble on expression in E. coli": "not soluble"},
      {"sequence": "GPGSMSATDASITGAEAAPASPGTSPAATGPASTAAVTAYTVGIDIGSATTRVAVMDPAKLMPTIIRNALGNEATSTVVSFAANEARSFGENAAARQVTKASETIVDLAPWIFGYTSGEQVPKDTAVSLQVVSPATAMTEACVLKSRQLGAQEHLTHPAQVAAFYIKSLLQLLPEKGMIRTSPVCLAVPSAAYAASFEALRQATLLAGVPQEQTIIAHSDEATAVYFHHLQYSGLPAKHDGAAVPVVLIDIGQSCSVASLIMASQPRVEKVDCQTLRMGSEYIDALLCSHVYSELGKKFGAAADPLRGDIKSFRKILRECRKAKEVLSTTDETQVQLEGLSGDIDIIVSVTRAMMEQAALPFLQAVRAMLTAIKEKLPVPSATEDGSQAAAVPPRVEVIGGGWRSVCVMEAIREVFGITRVGVSLDANLSVAEGSAILAEVRQLTIARQQDEEQTAQATTASSVAEAHQVELIGFEVLDANSPINRPLSEAGVRAVTEWIMLEKQMEDSDARIHERLAALNRLDSYILQTLAAVDNCAASSEKKTEMRAYIEEVDAYVRSEGDEASSVELNEKLAAVQAHVTEHFSEIEAYYESVRAEEKRKEEELVKLSKERQEDESDLKSDPQRLRMAQKRREQGQGLFREECWAEAQTRFVQALSILGQLYDTSSEENKTKKREISLSCYLNIASCSVKLGLWKNAVNNCTNALELVPDHPKALFRRGQAYSALKEYEEAVTDLEKAKAVSQDDPVVVAELNKAKAALGAEKAKTKKMFAKMFS", "soluble on expression in E. coli": "soluble"}
    ]}
  ]
}
